Results on one molecule are retold here after article PMC5928908 (Theranostics, 2018).

The assay has as its target full-length GST-PRMT5 (UniProt O14744 1-637). The assay is described as follows: pull-down.

full-length GST-PRMT5, sequence (O14744 whole entry): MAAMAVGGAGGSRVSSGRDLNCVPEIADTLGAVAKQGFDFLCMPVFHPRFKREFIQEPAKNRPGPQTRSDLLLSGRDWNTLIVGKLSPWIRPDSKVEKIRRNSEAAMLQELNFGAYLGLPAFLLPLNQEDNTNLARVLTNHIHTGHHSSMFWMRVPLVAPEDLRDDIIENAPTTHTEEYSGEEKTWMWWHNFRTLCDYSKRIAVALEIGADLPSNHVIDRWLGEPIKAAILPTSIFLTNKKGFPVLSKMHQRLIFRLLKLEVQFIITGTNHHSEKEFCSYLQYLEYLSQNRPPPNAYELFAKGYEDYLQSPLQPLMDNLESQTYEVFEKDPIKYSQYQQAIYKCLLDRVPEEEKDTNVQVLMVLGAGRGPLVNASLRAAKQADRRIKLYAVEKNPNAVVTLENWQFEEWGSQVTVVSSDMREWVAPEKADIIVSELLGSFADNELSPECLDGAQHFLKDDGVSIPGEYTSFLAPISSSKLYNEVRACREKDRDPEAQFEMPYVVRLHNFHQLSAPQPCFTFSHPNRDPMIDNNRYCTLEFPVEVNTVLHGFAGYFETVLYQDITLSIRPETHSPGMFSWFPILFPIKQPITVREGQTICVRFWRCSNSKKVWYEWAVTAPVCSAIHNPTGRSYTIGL

B1: full-length His-CAPG (natural protein)
chain: MYTAIPQSGSPFPGSVQDPGLHVWRVEKLKPVPVAQENQGVFFSGDSYLVLHNGPEEVSHLHLWIGQQSSRDEQGACAVLAVHLNTLLGERPVQHREVQGNESDLFMSYFPRGLKYQEGGVESAFHKTSTGAPAAIKKLYQVKGKKNIRATERALNWDSFNTGDCFILDLGQNIFAWCGGKSNILERNKARDLALAIRDSERQGKAQVEIVTDGEEPAEMIQVLGPKPALKEGNPEEDLTADKANAQAAALYKVSDATGQMNLTKVADSSPFALELLISDDCFVLDNGLCGKIYIWKGRKANEKERQAALQVAEGFISRMQYAPNTQVEILPQGHESPIFKQFFKDWK
As to B1, the binding result is reported as “binds”.
